This is an account of results in paper PMC11678932, “A Signal-On Microelectrode Electrochemical Aptamer Sensor Based on AuNPs–MXene for Alpha-Fetoprotein Determination”.

This data set deals with T1, alpha-fetoprotein (AFP) (UniProt P02771 19-609).
T1 sequence: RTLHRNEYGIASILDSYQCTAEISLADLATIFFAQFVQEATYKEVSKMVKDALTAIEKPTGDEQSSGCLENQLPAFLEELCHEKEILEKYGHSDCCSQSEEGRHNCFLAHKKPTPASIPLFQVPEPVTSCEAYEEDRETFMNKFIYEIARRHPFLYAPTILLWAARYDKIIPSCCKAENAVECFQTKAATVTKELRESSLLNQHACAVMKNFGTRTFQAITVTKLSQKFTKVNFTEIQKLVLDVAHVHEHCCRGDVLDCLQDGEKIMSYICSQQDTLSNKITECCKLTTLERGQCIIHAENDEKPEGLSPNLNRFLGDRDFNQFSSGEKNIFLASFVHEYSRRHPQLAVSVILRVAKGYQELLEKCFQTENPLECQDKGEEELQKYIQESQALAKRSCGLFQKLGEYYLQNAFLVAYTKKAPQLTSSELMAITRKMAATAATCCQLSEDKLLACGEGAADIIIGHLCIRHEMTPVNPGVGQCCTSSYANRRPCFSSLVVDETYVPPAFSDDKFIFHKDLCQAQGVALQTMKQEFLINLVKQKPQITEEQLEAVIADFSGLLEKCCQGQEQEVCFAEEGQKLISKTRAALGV
The data set is described as follows: electrochemical aptasensor (DPV); signal-on; log-linear 1-300 ng/mL, LOD 0.05 ng/mL (not a Kd); Optimized: pH 7, 4 uM aptamer, 40 min aptamer and 30 min AFP incubation; PBS (0.01 M) listed as reagent; temperature not stated for binding. As to conditions: protein: commercial; label: 3'-methylene blue.

B1: AFP aptamer (ssDNA)
DNA: GTGACGCTCCTAACGCTGACTCAGGTGCAGTTCTCGACTCGGTCTTGATGTGGGTCCTGTCCGTCCGAACCAATC
modifications: 5'-SH; 3'-methylene blue
Take B1: the binding result is listed as “binds”.
